Laboratory results: PMC7949025, “Biophysical characterization of the ETV6 PNT domain polymerization interfaces” (The Journal of Biological Chemistry, 2021)
Substitutions are numbered along the chain they refer to. Names and notes keep the numbering of the source.

T1: biotinylated A93D-PNT domain (ETV6 residues 43-135, A93D, with Avitag) (human, UniProt P41212 43-135, A93D, biotin on the Avitag (~50 to 95% biotinylated))
T1 construct: ETV6, human, residues 43-135; made from the V112E construct by introducing A93D and E112V; also called biotinylated A93D-PNT domain ligand; A93D-PNT domain ligand; source: E. coli BL21 (λDE3) co-transformed with pET21a-BirA, purified (Ni-NTA, thrombin cleavage); not shown: His6, N-terminal, cleaved; Avitag, N-terminal, kept
T1 sequence (looked up): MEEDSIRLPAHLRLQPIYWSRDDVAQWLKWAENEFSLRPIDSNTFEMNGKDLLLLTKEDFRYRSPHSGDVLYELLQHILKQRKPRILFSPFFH

T2: biotinylated V112E-PNT domain (ETV6 residues 43-135, V112E, with Avitag) (human, UniProt P41212 43-135, V112E, biotin on the Avitag (~50 to 95% biotinylated))
T2 construct: ETV6, human, residues 43-135 of V112E ETV6; also called biotinylated V112E-PNT domain ligand; V112E-PNT domain ligand; source: E. coli BL21 (λDE3) co-transformed with pET21a-BirA, purified (Ni-NTA, thrombin cleavage); not shown: His6, N-terminal, cleaved; Avitag, N-terminal, kept
T2 sequence (looked up): T1 sequence (looked up) with D51A, V70E

B1: V112E-PNT domain (ETV6 residues 40-125 with the V112E mutation) (domain or fragment, human, UniProt P41212 40-125, looked up)
chain: ALRMEEDSIRLPAHLRLQPIYWSRDDVAQWLKWAENEFSLRPIDSNTFEMNGKALLLLTKEDFRYRSPHSGDELYELLQHILKQRK
notes: ETV6 PNT domain fragment, human, residues 40-125; expressed as residues 1-125 and cut by thrombin at the internal site V37-P38-R39/A40; 15N- or 13C/15N-labelled or unlabelled in NMR; also called V112E-PNT domain analyte; source: E. coli BL21 (λDE3), purified (Ni-NTA, thrombin cleavage, Superdex S75; size exclusion omitted for SPR); not shown: His6, N-terminal, cleaved
B2: D101A-V112E-PNT domain (domain or fragment, human, UniProt P41212 40-125, looked up)
chain: B1 chain with D62A
notes: ETV6 PNT domain, human; source: E. coli BL21 (λDE3), purified (Ni-NTA, thrombin cleavage); not shown: His6, N-terminal, cleaved
B3: E88A-V112E-PNT domain (domain or fragment, human, UniProt P41212 40-125, looked up)
chain: B1 chain with E49A
notes: as for B2
B4: E100A-V112E-PNT domain (domain or fragment, human, UniProt P41212 40-125, looked up)
chain: B1 chain with E61A
notes: as for B2
B5: I59A-V112E-PNT domain (domain or fragment, human, UniProt P41212 40-125, looked up)
chain: B1 chain with I20A
notes: as for B2
B6: K92A-V112E-PNT domain (domain or fragment, human, UniProt P41212 40-125, looked up)
chain: B1 chain with K53A
notes: as for B2
B7: L96A-V112E-PNT domain (domain or fragment, human, UniProt P41212 40-125, looked up)
chain: B1 chain with L57A
notes: as for B2
B8: L97A-V112E-PNT domain (domain or fragment, human, UniProt P41212 40-125, looked up)
chain: B1 chain with L58A
notes: as for B2
B9: M89A-V112E-PNT domain (domain or fragment, human, UniProt P41212 40-125, looked up)
chain: B1 chain with M50A
notes: as for B2
B10: N85A-V112E-PNT domain (domain or fragment, human, UniProt P41212 40-125, looked up)
chain: B1 chain with N46A
notes: as for B2
B11: N90A-V112E-PNT domain (domain or fragment, human, UniProt P41212 40-125, looked up)
chain: B1 chain with N51A
notes: ETV6 PNT domain, human; gene purchased commercially (Biomatik); source: E. coli BL21 (λDE3), purified (Ni-NTA, thrombin cleavage); not shown: His6, N-terminal, cleaved
B12: R63A-V112E-PNT domain (domain or fragment, human, UniProt P41212 40-125, looked up)
chain: B1 chain with R24A
notes: as for B2
B13: R105A-V112E-PNT domain (domain or fragment, human, UniProt P41212 40-125, looked up)
chain: B1 chain with R66A
notes: as for B2
B14: T98A-V112E-PNT domain (domain or fragment, human, UniProt P41212 40-125, looked up)
chain: B1 chain with T59A
notes: as for B2
B15: Y104A-V112E-PNT domain (domain or fragment, human, UniProt P41212 40-125, looked up)
chain: B1 chain with Y65A
notes: as for B2
B16: A93D-PNT domain (ETV6 residues 40-125 with the A93D mutation) (domain or fragment, human, UniProt P41212 40-125, looked up)
chain: B1 chain with A54D, E73V
notes: ETV6 PNT domain fragment, human, residues 40-125; expressed as residues 1-125 and cut by thrombin at the internal site V37-P38-R39/A40; 15N- or 13C/15N-labelled or unlabelled in NMR; also called A93D-PNT domain analyte; source: E. coli BL21 (λDE3), purified (Ni-NTA, thrombin cleavage, Superdex S75; size exclusion omitted for SPR); not shown: His6, N-terminal, cleaved
B17: D111A-A93D-PNT domain (domain or fragment, human, UniProt P41212 40-125, looked up)
chain: B1 chain with A54D, D72A, E73V
notes: as for B2
B18: E76A-A93D-PNT domain (domain or fragment, human, UniProt P41212 40-125, looked up)
chain: B1 chain with E37A, A54D, E73V
notes: as for B2
B19: E100A-A93D-PNT domain (domain or fragment, human, UniProt P41212 40-125, looked up)
chain: B1 chain with A54D, E61A, E73V
notes: as for B2
B20: E115A-A93D-PNT domain (domain or fragment, human, UniProt P41212 40-125, looked up)
chain: B1 chain with A54D, E73V, E76A
notes: as for B2
B21: F77A-A93D-PNT domain (domain or fragment, human, UniProt P41212 40-125, looked up)
chain: B1 chain with F38A, A54D, E73V
notes: as for B2
B22: H108A-A93D-PNT domain (domain or fragment, human, UniProt P41212 40-125, looked up)
chain: B1 chain with A54D, H69A, E73V
notes: as for B2
B23: H119A-A93D-PNT domain (domain or fragment, human, UniProt P41212 40-125, looked up)
chain: B1 chain with A54D, E73V, H80A
notes: as for B2
B24: I48A-A93D-PNT domain (domain or fragment, human, UniProt P41212 40-125, looked up)
chain: B1 chain with I9A, A54D, E73V
notes: as for B2
B25: K99A-A93D-PNT domain (domain or fragment, human, UniProt P41212 40-125, looked up)
chain: B1 chain with A54D, K60A, E73V
notes: as for B2
B26: L79A-A93D-PNT domain (domain or fragment, human, UniProt P41212 40-125, looked up)
chain: B1 chain with L40A, A54D, E73V
notes: as for B2
B27: L116A-A93D-PNT domain (domain or fragment, human, UniProt P41212 40-125, looked up)
chain: B1 chain with A54D, E73V, L77A
notes: as for B11
B28: P107A-A93D-PNT domain (domain or fragment, human, UniProt P41212 40-125, looked up)
chain: B1 chain with A54D, P68A, E73V
notes: as for B2
B29: R80A-A93D-PNT domain (domain or fragment, human, UniProt P41212 40-125, looked up)
chain: B1 chain with R41A, A54D, E73V
notes: as for B2
B30: R103A-A93D-PNT domain (domain or fragment, human, UniProt P41212 40-125, looked up)
chain: B1 chain with A54D, R64A, E73V
notes: as for B2
B31: S47A-A93D-PNT domain (domain or fragment, human, UniProt P41212 40-125, looked up)
chain: B1 chain with S8A, A54D, E73V
notes: as for B2
B32: S78A-A93D-PNT domain (domain or fragment, human, UniProt P41212 40-125, looked up)
chain: B1 chain with S39A, A54D, E73V
notes: as for B2
B33: V112A-A93D-PNT domain (domain or fragment, human, UniProt P41212 40-125, looked up)
chain: B1 chain with A54D, E73A
notes: as for B2
B34: Y114A-A93D-PNT domain (domain or fragment, human, UniProt P41212 40-125, looked up)
chain: B1 chain with A54D, E73V, Y75A
notes: as for B2

Molecular target: T1, biotinylated A93D-PNT domain (ETV6 …)
Experiment: SPR; biotinylated A93D-PNT domain ligand captured on streptavidin Sensor Chip SA, PNT domain analytes flowed; Biacore X100, 25 °C, HBS-EP+ (10 mM HEPES, 150 mM NaCl, 3 mM EDTA, 0.05% v/v Tween-20, pH 7.4); analyte 0.2-60 nM, re-run at 20-6000 nM if KD > 60 nM
Details: both partners purified
How it was run: (§1)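 In a Biacore X100 at 25 °C, a streptavidin Sensor Chip SA captured biotinylated ETV6 PNT domain (residues 43-135, Avitag) diluted to 50 μg/ml in HBS-EP+, and PNT domain analytes were injected at 0.2-60 nM, or at 20-6000 nM when binding was weaker. Rate and equilibrium dissociation constants came from the Biacore kinetics/affinity software wizard.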

Binder | Kd [nM] | koff [s⁻¹] | kon [M⁻¹ s⁻¹]
B1 | 5.1 | 0.0023 | 440000
B2 | 400 | 0.0025 | 6300
B3 | 8.1 | 0.004 | 500000
B4 | 7 | 0.0035 | 500000
B5 | 5.8 | 0.0025 | 430000
B6 | 62 | 0.022 | 350000
B7 | 1000 | 0.0095 | 9500
B8 | 700 | 0.068 | 98000
B9 | 340 | 0.033 | 97000
B10 | 9.9 | 0.0034 | 350000
B11 | 480 | 0.037 | 78000
B12 | 15 | 0.0054 | 360000
B13 | 2340 | 0.0054 | 2300
B14 | 8.8 | 0.0054 | 620000
B15 | 21 | 0.015 | 730000

Molecular target: T2, biotinylated V112E-PNT domain (ETV6 …)
Experiment: SPR; biotinylated V112E-PNT domain ligand captured on streptavidin Sensor Chip SA, PNT domain analytes flowed; Biacore X100, 25 °C, HBS-EP+ (10 mM HEPES, 150 mM NaCl, 3 mM EDTA, 0.05% v/v Tween-20, pH 7.4); analyte 0.2-60 nM, re-run at 20-6000 nM if KD > 60 nM
Details: both partners purified
How it was run: as §1

Binder | Kd [nM] | koff [s⁻¹] | kon [M⁻¹ s⁻¹]
B16 | 7.5 | 0.0015 | 200000
B17 | 420 | 0.0014 | 3300
B18 | 9.9 | 0.0062 | 620000
B19 | 5 | 0.0015 | 310000
B20 | 11 | 0.0025 | 230000
B21 | 450 | 0.015 | 34000
B22 | 5.4 | 0.0014 | 260000
B23 | 13 | 0.0034 | 270000
B24 | 12 | 0.004 | 340000
B25 | 930 | 0.0023 | 2400
B26 | 200 | 0.0016 | 8100
B27 | 3.3 | 0.00076 | 230000
B28 | 8.1 | 0.0021 | 260000
B29 | 32 | 0.0029 | 91000
B30 | 21 | 0.0054 | 250000
B31 | 6.9 | 0.0014 | 210000
B32 | 3.3 | 0.0093 | 2.8e+06
B33 | 550 | 0.011 | 20000
B34 | 130 | 0.0045 | 35000
